Measurements: IntAct's records for PubMed 31515488

B1: 3-hydroxyanthranilate 3,4-dioxygenase (Homo sapiens), P46952 (parent)
chain: MERRLGVRAWVKENRGSFQPPVCNKLMHQEQLKVMFIGGPNTRKDYHIEEGEEVFYQLEGDMVLRVLEQGKHRDVVIRQGEIFLLPARVPHSPQRFANTVGLVVERRRLETELDGLRYYVGDTMDVLFEKWFYCKDLGTQLAPIIQEFFSSEQYRTGKPIPDQLLKEPPFPLSTRSIMEPMSLDAWLDSHHRELQAGTPLSLFGDTYETQVIAYGQGSSEGLRQNVDVWLWQLEGSSVVTMGGRRLSLAPDDSLLVLAGTSYAWERTQGSVALSVTQDPACKKPLG
partner: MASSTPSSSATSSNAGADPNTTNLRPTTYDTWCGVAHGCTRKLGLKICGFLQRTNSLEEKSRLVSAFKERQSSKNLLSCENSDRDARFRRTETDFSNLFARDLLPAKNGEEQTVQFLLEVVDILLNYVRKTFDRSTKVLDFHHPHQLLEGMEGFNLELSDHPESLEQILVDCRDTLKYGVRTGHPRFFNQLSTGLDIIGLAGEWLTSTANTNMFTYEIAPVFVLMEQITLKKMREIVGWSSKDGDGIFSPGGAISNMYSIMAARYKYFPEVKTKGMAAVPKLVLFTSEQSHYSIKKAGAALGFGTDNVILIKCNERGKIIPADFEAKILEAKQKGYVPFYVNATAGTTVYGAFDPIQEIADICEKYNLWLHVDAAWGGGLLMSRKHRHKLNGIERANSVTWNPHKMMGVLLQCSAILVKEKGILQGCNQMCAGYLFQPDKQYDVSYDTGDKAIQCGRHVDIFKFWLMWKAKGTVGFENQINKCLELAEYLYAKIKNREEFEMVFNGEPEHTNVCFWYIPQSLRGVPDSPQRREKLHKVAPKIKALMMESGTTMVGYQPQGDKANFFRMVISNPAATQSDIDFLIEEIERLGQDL
B2: Fanconi anemia group G protein (Homo sapiens), O15287 (parent)
chain: MSRQTTSVGSSCLDLWREKNDRLVRQAKVAQNSGLTLRRQQLAQDALEGLRGLLHSLQGLPAAVPVLPLELTVTCNFIILRASLAQGFTEDQAQDIQRSLERVLETQEQQGPRLEQGLRELWDSVLRASCLLPELLSALHRLVGLQAALWLSADRLGDLALLLETLNGSQSGASKDLLLLLKTWSPPAEELDAPLTLQDAQGLKDVLLTAFAYRQGLQELITGNPDKALSSLHEAASGLCPRPVLVQVYTALGSCHRKMGNPQRALLYLVAALKEGSAWGPPLLEASRLYQQLGDTTAELESLELLVEALNVPCSSKAPQFLIEVELLLPPPDLASPLHCGTQSQTKHILASRCLQTGRAGDAAEHYLDLLALLLDSSEPRFSPPPSPPGPCMPEVFLEAAVALIQAGRAQDALTLCEELLSRTSSLLPKMSRLWEDARKGTKELPYCPLWVSATHLLQGQAWVQLGAQKVAISEFSRCLELLFRATPEEKEQGAAFNCEQGCKSDAALQQLRAAALISRGLEWVASGQDTKALQDFLLSVQMCPGNRDTYFHLLQTLKRLDRRDEATALWWRLEAQTKGSHEDALWSLPLYLESYLSWIRPSDRDAFLEEFRTSLPKSCDL
partner: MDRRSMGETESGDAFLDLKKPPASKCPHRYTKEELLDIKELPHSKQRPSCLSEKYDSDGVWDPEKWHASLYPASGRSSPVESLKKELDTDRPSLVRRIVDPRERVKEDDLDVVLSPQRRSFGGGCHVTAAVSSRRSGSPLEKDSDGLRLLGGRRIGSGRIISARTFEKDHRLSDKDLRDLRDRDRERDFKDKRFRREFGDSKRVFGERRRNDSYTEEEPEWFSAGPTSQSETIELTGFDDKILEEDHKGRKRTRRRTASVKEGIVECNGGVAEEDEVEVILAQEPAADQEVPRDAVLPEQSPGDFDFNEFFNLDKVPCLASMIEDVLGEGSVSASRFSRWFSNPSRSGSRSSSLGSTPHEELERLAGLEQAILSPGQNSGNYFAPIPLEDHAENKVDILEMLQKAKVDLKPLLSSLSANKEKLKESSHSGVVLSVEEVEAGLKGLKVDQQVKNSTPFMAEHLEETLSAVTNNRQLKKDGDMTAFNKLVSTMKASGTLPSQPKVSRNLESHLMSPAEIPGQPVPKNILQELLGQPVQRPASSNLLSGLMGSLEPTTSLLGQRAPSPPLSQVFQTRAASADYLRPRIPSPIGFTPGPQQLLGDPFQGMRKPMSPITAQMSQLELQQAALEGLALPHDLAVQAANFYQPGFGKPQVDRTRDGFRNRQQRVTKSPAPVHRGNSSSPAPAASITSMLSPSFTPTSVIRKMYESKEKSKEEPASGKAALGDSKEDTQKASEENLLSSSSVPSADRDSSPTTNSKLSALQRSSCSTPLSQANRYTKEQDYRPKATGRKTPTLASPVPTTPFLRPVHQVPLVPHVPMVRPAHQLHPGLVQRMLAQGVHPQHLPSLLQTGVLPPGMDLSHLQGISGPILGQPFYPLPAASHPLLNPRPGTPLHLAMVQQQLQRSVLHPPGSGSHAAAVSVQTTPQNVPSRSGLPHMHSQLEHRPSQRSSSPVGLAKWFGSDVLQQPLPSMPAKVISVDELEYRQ
B3: Medium-chain acyl-CoA ligase ACSF2, mitochondrial (Homo sapiens), Q96CM8 (parent)
chain: MAVYVGMLRLGRLCAGSSGVLGARAALSRSWQEARLQGVRFLSSREVDRMVSTPIGGLSYVQGCTKKHLNSKTVGQCLETTAQRVPEREALVVLHEDVRLTFAQLKEEVDKAASGLLSIGLCKGDRLGMWGPNSYAWVLMQLATAQAGIILVSVNPAYQAMELEYVLKKVGCKALVFPKQFKTQQYYNVLKQICPEVENAQPGALKSQRLPDLTTVISVDAPLPGTLLLDEVVAAGSTRQHLDQLQYNQQFLSCHDPINIQFTSGTTGSPKGATLSHYNIVNNSNILGERLKLHEKTPEQLRMILPNPLYHCLGSVAGTMMCLMYGATLILASPIFNGKKALEAISRERGTFLYGTPTMFVDILNQPDFSSYDISTMCGGVIAGSPAPPELIRAIINKINMKDLVVAYGTTENSPVTFAHFPEDTVEQKAESVGRIMPHTEARIMNMEAGTLAKLNTPGELCIRGYCVMLGYWGEPQKTEEAVDQDKWYWTGDVATMNEQGFCKIVGRSKDMIIRGGENIYPAELEDFFHTHPKVQEVQVVGVKDDRMGEEICACIRLKDGEETTVEEIKAFCKGKISHFKIPKYIVFVTNYPLTISGKIQKFKLREQMERHLNL
B4: Homeobox protein VENTX (Homo sapiens), O95231 (parent)
chain: MRLSSSPPRGPQQLSSFGSVDWLSQSSCSGPTHTPRPADFSLGSLPGPGQTSGAREPPQAVSIKEAAGSSNLPAPERTMAGLSKEPNTLRAPRVRTAFTMEQVRTLEGVFQHHQYLSPLERKRLAREMQLSEVQIKTWFQNRRMKHKRQMQDPQLHSPFSGSLHAPPAFYSTSSGLANGLQLLCPWAPLSGPQALMLPPGSFWGLCQVAQEALASAGASCCGQPLASHPPTPGRPSLGPALSTGPRGLCAMPQTGDAF
partner: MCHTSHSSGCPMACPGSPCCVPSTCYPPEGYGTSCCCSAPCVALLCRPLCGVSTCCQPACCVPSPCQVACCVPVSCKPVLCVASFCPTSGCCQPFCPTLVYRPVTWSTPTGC
B5: Eukaryotic translation initiation factor 4E-binding protein 2 (Homo sapiens), Q13542 (parent)
chain: MSSSAGSGHQPSQSRAIPTRTVAISDAAQLPHDYCTTPGGTLFSTTPGGTRIIYDRKFLLDRRNSPMAQTPPCHLPNIPGVTSPGTLIEDSKVEVNNLNNLNNHDRKHAVGDDAQFEMDI

Variants of: B1
Details: with dce1_human GAD1, Q99259

Row | effect of a mutation on the interaction | Variant
1 | with no effect | I37V

Variants of: B2
Details: with 4et_human EIF4ENIF1, Q9NRA8

Row | effect of a mutation on the interaction | Variant
2 | with no effect | S7F
3 | with no effect | T297I

Variants of: B3
Details: with atrap_human AGTRAP

Row | effect of a mutation on the interaction | Variant
4 | disrupting interaction strength | G19W
5 | disrupting interaction strength | A34V

Variants of: B3
Details: with ar6p1_human ARL6IP1, Q15041
Chain of ar6p1_human ARL6IP1, Q15041 (Q15041 whole entry): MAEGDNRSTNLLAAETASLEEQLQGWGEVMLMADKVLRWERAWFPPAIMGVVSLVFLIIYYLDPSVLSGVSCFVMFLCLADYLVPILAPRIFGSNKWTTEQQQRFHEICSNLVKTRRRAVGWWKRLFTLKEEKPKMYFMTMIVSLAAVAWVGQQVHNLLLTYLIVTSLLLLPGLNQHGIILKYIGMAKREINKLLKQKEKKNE

Row | effect of a mutation on the interaction | Variant
6 | disrupting interaction strength | G19W
7 | disrupting interaction strength | A34V

Variants of: B4
Details: with kr124_human KRTAP12-4, P60329

Row | effect of a mutation on the interaction | Variant
8 | with no effect | M251V
9 | with no effect | L42P
10 | with no effect | A226E

Variants of: B5
Details: with if4e_human EIF4E

Row | effect of a mutation on the interaction | Variant
11 | with no effect | G6D
